Laboratory results published in the supplement of paper PMC11908140.

B1: library; numbered along this chain (parent)
chain: MRKPRAAVGSGHRKQAASQEGRQKHAKNNSQAKPSACDGLARQPEEVVLQASVSSYHLFRDVAEVTAFRGSLLSWYDQEKRDLPWRRRAEDEMDLDRRAYAVWVSEVMLQQTQVATVINYYTGWMQKWPTLQDLASASLEEVNQLWAGLGYYSRGRRLQEGARKVVEELGGHMPRTAETLQQLLPGVGRYTAGAIASIAFGQATGVVDGNVARVLCRVRAIGADPSSTLVSQQLWGLAQQLVDPARPGDFNQAAMELGATVCTPQRPLCSQCPVESLCRARQRVEQEQLLASGSLSGSPDVEECAPNTGQCHLCLPPSEPWDQTLGVVNFPRKASRKPPREESSATCVLEQPGALGAQILLVQRPNSGLLAGLWEFPSVTWEPSEQLQRKALLQELQRWAGPLPATHLRHLGEVVHTFSHIKLTYQVYGLALEGQTPVTTVPPGARWLTQEEFHTAAVSTAMKKVFRVYQGQQPGTCMGSKRSQVSSPCSRKKPRMGQQVLDNFFRSHISTDAHSLNSAAQ

Variants of: B1
Assay: 8OG:A repair function score (normalized; synonymous = 0, nonsense = -1) (normalized log-likelihood score); higher = more repair activity (WT-like)
Conditions: with 8OG:A DNA repair reporter (GFP) in HEK-293 MUTYH KO cells
In short: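 With 10 pg/ml doxycycline, MUTYH knockout HEK-293 cells carrying lentiviral MUTYH cDNA NNN codon-scan libraries were co-transfected with mCherry and an 8OG:A GFP repair reporter. Viable mCherry+ cells were sorted into GFP+ (repair) and GFP− bins at 72 h, three replicates per tile, and tile amplicons were sequenced. Per-tile Rosace fitness scores were then normalized into a repair function score anchored on synonymous and nonsense distributions. Medians were fixed at 0 for synonymous and -1 for nonsense, excluding variants under 300 counts per million at the start.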

8OG:A repair function score of substitutions, site by site:
V379: S -0.0246 | F -0.299 | N -0.658 | Y -0.744 | M -0.148 | Q -0.792 | K -0.667 | P -0.937 | I -0.327 | E -0.777 | W -0.453 | C -0.214 | L -0.463 | R -0.476 | H -0.391 | A 0.00194 | T -0.0632 | G -0.37 | D -0.793
S367: M 0.226 | Q -0.113 | W 0.00054 | F -0.13 | I -0.335 | L -0.139 | C -0.0437 | N 0.179 | Y -0.204 | P -0.0154 | V 0.0128 | K 0.111 | T 0.119 | G -0.159 | E 0.154 | D -0.0756 | H -0.207 | A -0.145 | R -0.201
E375: G -0.0637 | R -0.462 | A -0.313 | F -0.673 | T -0.355 | N -0.407 | Q 0.0245 | D -0.434 | M -0.229 | I -0.715 | H -0.347 | K -0.462 | P -0.897 | C -0.342 | S -0.243 | V -0.423 | Y -0.285 | W -0.45 | L -0.83
G372: Y -0.393 | W -0.135 | R -0.304 | I -0.775 | H -0.297 | P -0.669 | A -0.461 | C -0.263 | L -0.351 | E -0.387 | D -0.324 | Q -0.291 | T -0.157 | K -0.479 | V -0.75 | N -0.294 | M -0.639 | F -0.294 | S -0.15
R364: K -0.245 | M -0.577 | F -0.639 | P -0.519 | C -0.262 | G -0.353 | I -0.878 | N -0.633 | L -0.747 | V -0.616 | W -1.11 | S -0.2 | E -0.504 | Y -0.593 | Q -0.529 | T -0.411 | D -0.614 | H -0.405
F376: Q -1.35 | H -0.879 | D -0.964 | A -0.775 | T -0.441 | V -0.809 | M -0.13 | K -0.92 | I -0.775 | E -1.28 | L -0.608 | W -0.757 | N -1.17 | G -1.2 | Y -0.715 | C -0.559 | S -0.657 | P -1.02 | R -1.31
W374: V -0.874 | K -0.692 | L -0.36 | Y -0.274 | T -1.02 | C -0.633 | F -0.33 | S -0.607 | I -0.729 | D -0.78 | M 0.217 | R -1.03 | G -0.847 | Q -0.828 | H -0.924 | N -0.645 | E -0.436 | A -1.1 | P -1.01
S378: C 0.0237 | H -0.255 | K -0.24 | R -0.122 | G -0.248 | F -0.0771 | E -0.297 | L -0.171 | N 0.0818 | Q 0.0825 | T 0.295 | A -0.104 | Y -0.26 | V -0.2 | D -0.953 | I -0.143 | P -0.772 | W -0.346 | M -0.037
P365: T -0.334 | M -0.184 | C 0.0287 | W -0.0852 | E 0.196 | I 0.146 | R -0.0845 | N 0.119 | H -0.038 | Q -0.147 | A -0.0399 | V 0.0242 | Y -0.212 | S -0.116 | L -0.0397 | G -0.137
